In US12514920B1, “Respiratory syncytial virus mRNA vaccine, and preparation method therefor and use thereof” (Hangzhou Tianlong Pharmaceutical Co., Ltd., priority 2024, dated 2026):

Legend:
[1] = tested on: RSV pre-F antibody (3C12); assay: Binding of epitope Φ of RSV F antigen mutants by flow cytometry; settings: for RSV pre-F antibody (3C12) Epitope Φ (%) binding rate: flow cytometry; for Φ/II (%): ratio of epitope Φ (3C12) to epitope II (11A9) binding rate
Source text: (§1) To investigate whether the RSV F antigen mutants have pre-fusion epitopes, an RSV pre-F antibody (3C12) (specifically binding to the RSV pre-F epitope […]) and an RSV F antibody (11A9) (binding to pre-F and post-F epitopes II) were detected by flow cytometry in this example, and RSV F protein mutants in the pre-F conformation were expected to bind to the antibodies tested.
(§2) • 293T cells (purchased from ATCC cell bank); RSV pre-F antibody (3C12), epitope […] (Novoprotein, Cat. No.: DA101); RSV F antibody (11A9), epitope II (Novoprotein, Cat. No.: DA091); • experimental groups: mRNA vaccines corresponding to the expressed antigens in Example 3;
(§3) • (1) Cell transfection: 293T cells were seeded at 1.3×10^5 cells/well in a 24-well plate. The next day, mRNA-LNP samples (containing 300 ng of mRNA) were added directly to the cells, and the mixture was uniformly mixed. • (2) Cell collection: The cells were taken out of the incubator after 16 h of transfection, the medium was pipetted off, 500 μL of 0.1% BSA solution was pipetted to wash the medium remaining in the well plate, taking care not to resuspend the cells, and the 0.1% BSA solution was pipetted off. 500 μL of 0.1% BSA solution was added to each well, and the cells were pipetted and transferred to a 1.5 mL centrifuge tube. • (3) Centrifugation: The cells were harvested by centrifugation at 400 g for 5 min at 4° C. in the dark, and the supernatant was discarded. • (4) Straining: 50.6 μL of RSV fluorescent antibody diluent was added to each of the control sample and the test samples to resuspend the cells, and the samples were incubated at 4° C. for 2 h in the dark. • (5) Cleaning: After the incubation was completed, 500 μL of 0.1% BSA solution was added to each tube, the cells were harvested by centrifugation at 400 g for 5 min at 4° C. in the dark, and the supernatant was discarded. This operation was repeated three times. • (6) Resuspension of cells: 200 μL of 0.1% BSA solution was added to each sample, and the cells were carefully pipetted to prepare a cell suspension. • (7) Detection on flow cytometer: The […] of RSV F mutants to antibodies were measured using flow cytometry, with 1×10^4 cells detected in each measurement.
(§4) The RSV pre-F antibody (3C12) used in this example specifically binds to the RSV pre-F epitope Φ, and the RSV F antibody (11A9) binds to the pre-F and post-F epitopes II. Whether the pre-fusion conformations of the RSV F mutants are stable can be further determined by detecting the binding of the epitope Φ and the epitope II on the mutants to corresponding epitopes of antibodies 3C12 and 11A9, respectively, by flow cytometry.

RSV F antibody (11A9) = assay: Binding of epitope II of RSV F antigen mutants by flow cytometry; settings: epitope II, antibody 11A9
Source text: as §1, §2, §3, §4

[2] = tested on: RSV pre-F antibody (3C12); assay type: physicochemical; settings: ELISA binding to 3C12; for Stress resistance parameter, Osmotic pressure (mM) 3000: high osmotic pressure 3000 mM; for Stress resistance parameter, Osmotic pressure (mM) 3000 / Stress resistance parameter, Osmotic pressure (mM) 10: room temperature; for Stress resistance parameter, Osmotic pressure (mM) 3000 / Stress resistance parameter, Osmotic pressure (mM) 10 / Stress resistance parameter, pH 3.5 / Stress resistance parameter, pH 10: 60 min; for Stress resistance parameter, Temperature (° C.) 50: incubation at 50° C. for 60 min; for Stress resistance parameter, Osmotic pressure (mM) 10: low osmotic pressure 10 mM; for Stress resistance parameter, pH 3.5: pH 3.5, room temperature; for Stress resistance parameter, pH 10: pH 10, room temperature; for Stress resistance parameter, Temperature (° C.) 4: storage at 4° C. for one week
Source text: To investigate the stability of the RSV F antigen mutants under different pH, temperature, osmotic pressure and other conditions, the mutants were subjected to stress tests under different treatment conditions in this example.
• 293T cells (purchased from ATCC cell bank); • Primary antibody: RSV pre-F antibody (3C12), epitope Φ (purchased from Suzhou Novoprotein Scientific Co., Ltd. (hereinafter referred to as Novoprotein), Cat. No.: DA101); • Standard: RSV pre-F trimer protein (Novoprotein, Cat. No.: DRA230); • Secondary antibody: peroxidase AffiniPure goat anti-human IgG (H+L) (purchased from Yeasen Biotechnology (Shanghai) Co., Ltd. (hereinafter referred to as Yeasen), Cat. No.: N/A); • Experimental group: mRNA vaccines after screening in Example 4;
Coating: A 96-well microplate was coated with a working solution and incubated at 2 to 8° C. for 16 to 20 h.
Plate washing: Phosphate buffered saline PBST was added to each well, and the plate was washed 5 times using a plate washer and patted dry on absorbent paper.
Blocking: After a blocking solution was added, the […] were placed on a constant temperature microplate shaker and incubated at 400 rpm for 1.5 h at 37° C.
Plate washing: PBST was added to each well, and the plate was washed 5 times using a plate washer and patted dry on absorbent paper.
Primary antibody incubation: A primary antibody dilution was added to each well, and the plate was sealed with a sealing film, and then incubated at 400 rpm for 1.5 h at 37° C.
Secondary antibody incubation: A secondary antibody dilution was added to each well, and the plate was sealed with a sealing film, and then incubated at 400 rpm for 45 min at 37° C.
Color development: A chromogenic solution was added, and the plate was sealed with a sealing film, and then placed on a constant temperature microplate shaker and incubated at 400 rpm for 25 min at 37° C.
Reaction stopping: After the color development was completed, a stop buffer was added at […] to the microplate to stop the reaction.
Plate reading: Absorbance values (OD values) were read within 5 min using a multimode microplate reader, with dual wavelengths of 450 nm and 630 nm set.
In this example, stability screening of the mutants through different treatment conditions was defined as a stress test, including storage at 4° C. for one week; incubation at 50° C. for 60 min; treatment at room temperature under low osmotic pressure and high osmotic pressure conditions for 60 min; treatment at room temperature under acid and base conditions for 60 min. The binding of the mutants to the RSV pre-F antibody (3C12) recognizing the epitope Φ was detected by ELISA.

Molecule | RSV pre-F antibody (3C12) Epitope Φ (%) binding rate [1] [%] | Φ/II (%) [1] [%] | RSV F antibody (11A9) Epitope II (%) binding rate (RSV F antibody (11A9)) [%] | Stress resistance parameter, Osmotic pressure (mM) 3000 [2] | Stress resistance parameter, Temperature (° C.) 50 [2] | Stress resistance parameter, Osmotic pressure (mM) 10 [2] | Stress resistance parameter, pH 3.5 [2] | Stress resistance parameter, pH 10 [2] | Stress resistance parameter, Temperature (° C.) 4 [2]
YK-RSV-008 (protein) QNITEEFYQSTCSAVSKGYLGALRTGWYTCVITIELSNIKENKCNGTDAKVKLIKQELDKYKNAVTDLQLLMQSTPATGSGSAIASGVAVSKVLHLEGEVNKIKSALLSTNKAVVSLSNGVSVCTIKVLDLKNYIDKQLLPIVNKQSCSIPNIETVIEFQQKNNRLLEITREFSVNAGVTTPVSTYMLTNSELLSLINDMPITNDQKKLMSNNVQIVRQQSYSIMSIIKEEVLAYVVQLPLYGVIDTPCWKLHTSPLCTTNTKEGSNICLTRTDRGWYCDNAGSVSFFPQAETCKVQSNRVFCDTMNSRTLPSEVNLCNVDIFNPKYDCKIMTSKTDVSSSVITSLGAIVSCYGKTKCTASNKNRGIIKTFSNGCDYVSNKGVDTVSVGNTLYYVNKQEGQSLYVKGEPIINFYDPLVFPSSEFDASISQVNEKINQSLAFIRKSDELLHNVNAGKSTTNIMITTIIIVIIVILLSLIAVGLLLY | 83.9 | 90.7 | 92.5 | 0.33 ± 0.02 | 0.45 ± 0.08 | 0.81 ± 0.09 | 0.76 ± 0.21 | 0.99 ± 0.19 | 0.65 ± 0.06
YK-RSV-016 (protein) QNITEEFYCSTCSAVSKGYLGALRTGWYTSVILIELSNIKENKCNGTDAKVKLIKQELDKYKNAVTDLQLLMQSTPATGSGSAICSGVAVSKVLHLEGEVNKIKSALLSTNKAVVSLSNGVSVLTFKVLDLKNYIDKQLLPIVNKQSCSIPNIETVIEFQQKNNRLLEITREFSVNAGVTTPVSTYMLTNSELLSLINDMPITNDQKKLMSNNVQIVRQQSYSIMSIIKEEVLAYVVQLPLYGVIDTPCWKLHTSPLCTTNTKEGSNICLTRTDRGWYCDNAGSVSFFPQAETCKVQSNRVFCDTMNSRTLPSEVNLCNVDIFNPKYDCKIMTSKTDVSSSVITSLGAIVSCYGKTKCTASNKNRGIIKTFSNGCDYVSNKGVDTVSVGNTLYCVNKQEGQSLYVKCEPIINFYDPLVFPSSEFDASISQVNEKINQSLAFIRKSDELLHNVNAGKSTTNIMITTIIIVIIVILLSLIAVGLLLY | 79.8 | 95.7 | 83.4 | 0.53 ± 0.07 | 0.80 ± 0.01 | 0.77 ± 0.08 | 0.91 ± 0.06 | 0.98 ± 0.14 | 0.28 ± 0.05
YK-RSV-013 (protein) QNITEEFYQSTCSAVSKGYLGALRTGWYTSVITIELSNIKENKCNGTDAKVKLIKQELDKYKNAVTDLQLLMQSTPACGSGSACASGVAVSKVLHLEGEVNKIKSALLSTNKAVVSLSNGVSVLTFKVLDLKNYIDKQLLPIVNKQSCSIPNIETVIEFQQKNNRLLEITREFSVNAGVTTPVSTYMLTNSELLSLINDMPITNDQKKLMSNNVQIVRQQSYSIMSIIKEEVLAYVVQLPLYGVIDTPCWKLHTSPLCTTNTKEGSNICLTRTDRGWYCDNAGSVSFFPQAETCKVQSNRVFCDTMNSRTLPSEVNLCNVDIFNPKYDCKIMTSKTDVSSSVITSLGAIVSCYGKTKCTASNKNRGIIKTFSNGCDYVSNKGVDTVSVGNTLYCVNKQEGQSLYVKGEPIINFYDPLVFPSSEFDASISQVNEKINQSLAFIRKSDELLHNVNAGKSTTNIMITTIIIVIIVILLSLIAVGLLLY | 89.3 | 94.7 | 94.3 | 0.43 ± 0.04 | 0.91 ± 0.23 | 0.59 ± 0.08 | 0.84 ± 0.19 | 0.92 ± 0.04 | 0.69 ± 0.11
YK-RSV-019 (protein) QNITEEFYQSTCSAVSKGYLGALRTGWYTCVITIELSNIKENKCNGTDAKVKLIKQELDKYKNAVTDLQLLMQSTPATGSGSAICSGVAVSKVLHLEGEVNKIKSALLSTNKAVVSLSNGVSVCTFKVLDLKNYIDKQLLPIVNKQSCSIPNIEIVIEFQQKNNRLLEITREFSVNAGVTTPVSTYMLTNSELLSLINDMPITNDQKKLMSNNVQIVRQQSYSIMSIIKEEVLAYVVQLPLYGVIDTPCWKLHTSPLCTTNTKEGSNICLTRTDRGWYCDNAGSVSFFPQAETCKVQSNRVFCDTMNSRTLPSEVNLCNVDIFNPKYDCKIMTSKTDVSSSVITSLGAIVSCYGKTKCTASNKNRGIIKTFSNGCDYVSNKGVDTVSVGNTLYCVNKQEGQSLYVKGEPIINFYDPLVFPSSEFDASISQVNEKINQSLAFIRKSDELLHNVNAGKSTTNIMITTIIIVIIVILLSLIAVGLLLY | 84.5 | 93.5 | 90.4 | 0.63 ± 0.04 | 0.58 ± 0.05 | 0.81 ± 0.04 | 0.77 ± 0.05 | 0.88 ± 0.09 | 0.37 ± 0.08
